This is an account of results in PMC3515676.

What all share (test): purified protein
Common to all, as to format: biochemical, Danio rerio

The subject of series [1] is C[C@H](CCC(=O)O)[C@H]1CC[C@H]2[C@@H]3[C@H](O)C[C@@H]4C[C@H](O)CC[C@]4(C)[C@H]3CC[C@]12C. To be noted: 14 μM PAP[35S], 50 mM Taps pH 8.5, 28 °C, pH 8.5.
Series [2] relates to C[C@H](CCC(=O)NCC(=O)O)[C@H]1CC[C@H]2[C@@H]3[C@H](O)C[C@@H]4C[C@H](O)CC[C@]4(C)[C@H]3CC[C@]12C. To be noted: 14 μM PAP[35S], 50 mM Taps pH 8.5, 28 °C, pH 8.5.
Series [3] deals with C[C@H](CCC(=O)O)[C@H]1CC[C@H]2[C@@H]3CC[C@@H]4C[C@H](O)CC[C@]4(C)[C@H]3CC[C@]12C. To be noted: 14 μM PAP[35S], 50 mM Taps pH 8.5, 28 °C, pH 8.5.
Series [4] relates to C[C@H](CCCO)[C@H]1CC[C@H]2[C@@H]3[C@H](O)C[C@H]4C[C@H](O)CC[C@]4(C)[C@H]3C[C@H](O)[C@]12C. To be noted: 14 μM PAP[35S], 50 mM Mes pH 6.0, 28 °C, pH 6.0.

“Zebra danio SULT3 ST2 (ZF SULT3 ST2) (Danio rerio)”: the Michaelis constant (Km) was 21.75 ± 2.74 µM in series [1], 19.89 ± 1.32 µM in series [2], 6.00 ± 0.55 µM in series [3] and 22.36 ± 1.47 µM in series [4]. Besides, the Vmax in series [1] worked out at 0.00075 µmol/min/mg; in series [2] it was 0.00097 µmol/min/mg; in series [3] it was 0.00051 µmol/min/mg; in series [4] it was 0.00254 µmol/min/mg.
